From US20230212319A1, “NOVEL ANTIGEN BINDING DOMAINS AND SYNTHETIC ANTIGEN RECEPTORS INCORPORATING THE SAME” (University of Southern California, priority 2020, published 2023)

Columns and labels:
Type in all cases: cell-based
RAJI-CD19-KO cells = assay: JNG assay, co-culture with RAJI-CD19-KO cells; conditions: co-culture with Raji-CD19-KO
Summary of the method: (§1)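 Jurkat-NFAT-GFP (JNG) cells stably expressing SAR constructs via lentiviral transduction and puromycin/blasticidin selection were cocultured with target cells at E:T ~1:2 for ~4–18 h. NFAT-driven GFP was measured by FACS versus parental JNG cells; scores +/- to 5+ denote ~5–50% GFP-positive cells.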

RS;411 = assay: JNG assay, co-culture with RS;411 cells; conditions: co-culture with RS411
Summary of the method: as §1

RAJI cells = assay: JNG assay, co-culture with RAJI cells; conditions: JNG cells expressing construct, co-culture with Raji
Summary of the method: as §1

Molecule	NFAT-GFP ASSAY: Raji-CD19-KO (RAJI-CD19-KO cells)	NFAT-GFP ASSAY: RS411 (RS;411)	NFAT-GFP ASSAY: Raji (RAJI cells)
22108 (protein) MALPVTALLLPLALLLHAARPQVQLVESGGGLVQPGGSLRLSCAASGFTFTNHAMSWVRQAPGKGLELVSSISGNGRTTYYADSVKGRFTISRDISKNTLDLQMNSLRAEDTAVYYCAKDGGETLVDSRGQGTLVTVSSGTGGGGSGGGGSGGGGSEFDIQMTQSPSSLSASVGDRVTITCKASDHINNWLAWYQQKPGQAPKLLIYGATTLETGVPSRFSGSGSGTDYTLTISSLQPEDFATYYCQQSWNTPWTFGQGTKLEIKRLEDLKNVFPPEVAVFEPSEAEISHTQKATLVCLATGFYPDHVELSWWVNGKEVHSGVCTDPQPLKEQPALNDSRYCLSSRLRVSATFWQNPRNHFRCQVQFYGLSENDEWTQDRAKPVTQIVSAEAWGRADCGFTSESYQQGVLSATILYEILLGKATLYAVLVSALVLMAMVKRKDSRGRAKRSGSGATNFSLLKQAGDVEENPGPTSMDWIWRILFLVGAATGAHSFEQVQLQQPGAELVKPGASVKMSCKASGYAFSSYWINWMKQKPGQGLEWIGQIYPGDGDTNYNGKFKGRATLTADTSSSTAYMQLSSLTSEDSAVYFCARSITTVVGCAMDYWGQGTSVTVSSTRIQNPDPAVYQLRDSKSSDKSVCLFTDFDSQTNVSQSKDSDVYITDKCVLDMRSMDFKSNSAVAWSNKSDFACANAFNNSIIPEDTFFPSPESSCDVKLVEKSFETDTNLNFQNLSVIGFRILLLKVAGFNLLMTLRLWSSRAKRSGSGVKQTLNFDLLKLAGDVESNPGPSRGHMTEYKPTVRLATRDDVPRAVRTLAAAFADYPATRHTVDPDRHIERVTELQELFLTRVGLDIGKVWVADDGAAVAVWTTPESVEAGAVFAEIGPRMAELSGSRLAAQQQMEGLLAPHRPKEPAWFLATVGVSPDHQGKGLGSAVVLPGVEAAERAGVPAFLETSAPRNLPFYERLGFTVTADVEVPEGPRTWCMTRKPGA	3+ (refer to approximately 5%, 10%, 20%, 30%, 40% and 50% GFP positive cells)	5+ (refer to approximately 5%, 10%, 20%, 30%, 40% and 50% GFP positive cells)	4+ (refer to approximately 5%, 10%, 20%, 30%, 40% and 50% GFP positive cells)
22229 (protein) MALPVTALLLPLALLLHAARPACEVQLLESGGGLIQPGGSLRLSCAASGFTFSSHAMTWVRQAPGKGLEWVSAISGSGDYTHYADSVKGRFTISRDNSKNTVYLQMNSLRAEDSAVYYCAKDEDGGSLLGHRGQGTLVTVSSGTGAIGFLRTAEFDIQMTQSPSSLSASVGDRVTITCKASDHINNWLAWYQQKPGQAPKLLIYGATTLETGVPSRFSGSGSGTDYTLTISSLQPEDFATYYCQQSWNTPWTFGQGTKLEIKRLEDLKNVFPPEVAVFEPSKAEIAHTQKATLVCLATGFYPDHVELSWWVNGKEVHSGVCTDPQPLKEQPALNDSRYCLSSRLRVSATFWQNPRNHFRCQVQFYGLSENDEWTQDRAKPVTQIVSAEAWGRADCGITSASYHQGVLSATILYEILLGKATLYAVLVSALVLMAMVKRKDSRGRAKRSGSGATNFSLLKQAGDVEENPGPTSATMDWIWRILFLVGAATGAHSGPEVQLVESGGGLVQAGGSLRLSCAASGRTFSMGWFRQAPGKEREFVAAITYSGGSPYYADSVKGRFTISRDNAKNTVYLQMNSLKPEDTAVYYCAANPTYGSDWNAENWGQGTQVTVSSGSGGGGSGGGGSGGGGSFEQVQLQQPGAELVKPGASVKMSCKASGYAFSSYWINWMKQKPGQGLEWIGQIYPGDGDTNYNGKFKGRATLTADTSSSTAYMQLSSLTSEDSAVYFCARSITTVVGCAMDYWGQGTSVTVSSTRIQNPDPAVYQLRDSKSSDKSVCLFTDFDSQTNVSQSKDSDVYITDKCVLDMRSMDFKSNSAVAWSNKSDFACANAFNNSIIPEDTFFPSPESSCDVKLVEKSFETDTNLNFQNLSVIGFRILLLKVAGFNLLMTLRLWSSRAKRSGSGVKQTLNFDLLKLAGDVESNPGPSRGHMTEYKPTVRLATRDDVPRAVRTLAAAFADYPATRHTVDPDRHIERVTELQELFLTRVGLDIGKVWVADDGAAVAVWTTPESVEAGAVFAEIGPRMAELSGSRLAAQQQMEGLLAPHRPKEPAWFLATVGVSPDHQGKGLGSAVVLPGVEAAERAGVPAFLETSAPRNLPFYERLGFTVTADVEVPEGPRTWCMTRKPGA	5+ (refer to approximately 5%, 10%, 20%, 30%, 40% and 50% GFP positive cells)	2+ (refer to approximately 5%, 10%, 20%, 30%, 40% and 50% GFP positive cells)	3+ (refer to approximately 5%, 10%, 20%, 30%, 40% and 50% GFP positive cells)
22107 (protein) MALPVTALLLPLALLLHAARPDIQMTQSPSSLSASVGDRVTITCKASDHINNWLAWYQQKPGQAPKLLIYGATTLETGVPSRFSGSGSGTDYTLTISSLQPEDFATYYCQQSWNTPWTFGQGTKLEIKRLEIQNPDPAVYQLRDSKSSDKSVCLFTDFDSQTNVSQSKDSDVYITDKCVLDMRSMDFKSNSAVAWSNKSDFACANAFNNSIIPEDTFFPSSDVPCDVKLVEKSFETDTNLNFQNLSVIGFRILLLKVAGFNLLMTLRLWSSRAKRSGSGVKQTLNFDLLKLAGDVESNPGPTSATMDWIWRILFLVGAATGAHSGPQVQLQESGGGLAQAGGSLRLSCAASGRTFSMGWFRQAPGKEREFVAAITYSGGSPYYASSVRGRFTISRDNAKNTVYLQMNSLKPEDTAVYYCAANPTYGSDWNAENWGQGTQVTVSSGSGGGGSGGGGSGGGGSFEQVQLQQPGAELVKPGASVKMSCKASGYAFSSYWINWMKQKPGQGLEWIGQIYPGDGDTNYNGKFKGRATLTADTSSSTAYMQLSSLTSEDSAVYFCARSITTVVGCAMDYWGQGTSVTVSSTREDLKNVFPPEVAVFEPSKAEIAHTQKATLVCLATGFYPDHVELSWWVNGKEVHSGVCTDPQPLKEQPALNDSRYCLSSRLRVSATFWQNPRNHFRCQVQFYGLSENDEWTQDRAKPVTQIVSAEAWGRADCGITSASYHQGVLSATILYEILLGKATLYAVLVSALVLMAMVKRKDSRGRAKRSGSGATNFSLLKQAGDVEENPGPSRGHMTEYKPTVRLATRDDVPRAVRTLAAAFADYPATRHTVDPDRHIERVTELQELFLTRVGLDIGKVWVADDGAAVAVWTTPESVEAGAVFAEIGPRMAELSGSRLAAQQQMEGLLAPHRPKEPAWFLATVGVSPDHQGKGLGSAVVLPGVEAAERAGVPAFLETSAPRNLPFYERLGFTVTADVEVPEGPRTWCMTRKPGA	5+ (refer to approximately 5%, 10%, 20%, 30%, 40% and 50% GFP positive cells)	+ (refer to approximately 5%, 10%, 20%, 30%, 40% and 50% GFP positive cells)	4+ (refer to approximately 5%, 10%, 20%, 30%, 40% and 50% GFP positive cells)
